# Test results: the DeepSol protein solubility set
# Test: soluble on expression in E. coli; label from the status in PepcDB or PDB records
row,Sequence,soluble on expression in E. coli
1,MSVDLAHIRQVRAEADCLFNNDEVEAAIGRVAEAINRDLGETNPVVFCVMNGGLIFSGKLLPLLDFPLELSYLHATRYRNETSGGELFWKAKPEISFIDRDVLIIDDILDEGHTLSAIIDFCKHAGARAVHTAVLVDKEHERKARPDLKASFTGLYCADRYVFGYGMDYKGYWRNAAGIFAVKGL,not soluble
2,SFRMLSSSFEDDPFFADSFLAHRESMRNMMRSFSEPLGRDLLSISDGRGRTHNRRERDDGEDSLTATSFSLVPFGRFGGMHADVNPFQTMDRMMANMRSGIQELQRNFGQLSMDPNGHSFCSSSVMTYSKVGDEPPKVFQASTQTRRAPGGVKETRKAMRDSDSGLERMAVGHHIHDRGHVIRKSKNNKTGDEEVNQEFINMNESDAHAFDDEWQNEVLKYKSIGRSGNTGMRSVGHEHPGSRELKRREKIHRNSAIESGRRSNVFVDKLNVKGSPVKITKK,soluble
3,NVKQQFFPPSNTPMFYVDMWMPEGTDIRQTIKQAEKVESYIRQQDDIDFVSVSIGQGLQRFALTYQPEKSYEAYAQFQVRTTDRDNMFKLLHKLDDNLAKTFDEPTFQFKLMEFGPSPASKIEARITGPDPKVLRELAVQVEDILHTDPGARNIRHDWRERTKELVPVFNESKARRLGISKEDLSSTLQMAFGGSTFGVLRDGTHTLPIMMRLPEAERVDFESLQNVKIWSPSLQTYIPVDQIIDGVELDWSEPLIQRRDRKRTLTVLADHDVLSDDTAASLFARVQPKVMALHIPEGYEITWGGEYESSKDAQE,not soluble
4,MPSARLQQQFIRLWQCCEGKSQDTTLNELAALLSCSRRHMRTLLNTMQDRGWLTWEAEVGRGKRSRLTFLYTGLALQQQRAEDLLEQDRIDQLVQLVGDKATVRQMLVSHLGRSFRQGRHILRVLYYRPLRNLLPGSALRRSETHIARQIFSSLTRINEENGELEADIAHHWQQISPLHWRFFLRPGVHFHHGRELEMDDVIASLKRINTLPLYSHIADIVSPTPWTLDIHLTQPDRWLPLLLGQVPAMILPREWETLSNFASHPIGTGPYAVIRNSTNQLKIQAFDDFFGYRALIDEVNVWVLPEIADEPAGGLMLKGPQGEEKEIESRLEEGCYYLLFDSRTHRGANQQVRDWVSYVLSPTNLVYFAEEQYQQLWFPAYGLLPRWHHARTIKSEKPAGLESLTLTFYQDHSEHRVIAGIMQQILASHQVTLKIKEIDYDQWHTGEIESDIWLNSANFTLPLDFSVFAHLCEVPLLQHCIPIDWQADAARWRNGEMNLANWCQQLVASKAMVPLLHHWLIIQGQRSMRGLRMNTLGWFDFKSAWFAPPDP,not soluble
5,MGSDKIHHHHHHMTVVDDEKPAQAASGRFAAGEDPAKRDQILDGAKRAFMKHGFDAASMNDVTREAGVSKGTIYVYFQSKEDLFAALINNQKQKFAASMRDILAEETDLHMALRRYALAFTNYILTSEMIPAMRMLLAVQDRMPHLCQSFMRSGPENVRTVLEDYLEVQVKAGRLDIADTELAARQYIELATGAYFKKRLFGEIEVPPPQAEIDYIIDNALHIFLLAYDRKAENGPEAQRAN,not soluble
6,MGSDKIHHHHHHACSSDDDNTVNDETTPPEEEAVVTAPDVVGTYWGNLDISMLPDGSDQEVVIADGLPKFITFSQVSDTEVKMELKEFELFINGNILKFGDIVIDKCAVKKETDASTFTGQQDLTFQGDAAALGTCATSIEGTVQSGNATMNIQVKVPALKQTVKVAFSGVKQVEESGKD,not soluble
7,PFEGNATEVFTDGYSMLYSLMKEISKAKHHIHLQFYIFEDDPAGRLLRDLLIDKARQGVEVRLLYDDVGCWKVPHAFFDEMRGAGIEARSFLKVRFPLFTSKVNYRNHRKIVVIDGRVAYTGGMNIALRYMKGFPWGIWRDTHIKIEGKAVYGLQTAFLTDWYVVDRTLITSSRYFPEVGIFGKALIQIVTSDP,not soluble
8,GMDISGRDVETRLTLAREFMSGVDELPTVPDIVLRIAGKLNDPDVAIDEVADLLLQDQVLTARVVHLANSPLYSAARPISSIRDAVIYLGLDLLREAIFTCAIVDLFKTGKGPLNRSTLWAHSLGVARIAKLIAERTGFLNPVNVYVAGLLHDVGEVFINFFRGKEFSQVVTLVDEEKITFGQAEERLFGTSHCEVGFALAKRWSLNEFICDTILYHHDIEAVPYKQAAIVAMVAFADEYCTLRRLGFEGHKPVDSVRTLLENHPSWGVIRRSLGGSDFDEKLIVAELDSSIVEIRAAVDELFLL,soluble
9,MGSDKIHHHHHHMSRNRPAPSGDQFDLFLPYVADMPMRDQREMMERPFFSLAKSKRVKPIDYTSPDGKLWVHVSGNPDYGMATIWDADILIYCASVLADMARRGVNDVPRKLHLMPYDLLRAIGRPTTGRAYELLGQALDRLVATTIKTNIRAENRREATFSWLDGWTQLVDEKTERSRGMTIELSNWFWEGVMMKGGVLSIDRAYFDITGGRERWLYKVARKHAGGAGEEGFAISMPVLFEKSGAEGEYRRFKFEILKLAEKNALPGYGLSVETARGGEPMLRMRRVDGKDGADRALPEAGRQGAEARTVASTAPDVSPGKHSSGASETVDVRALIRKTVAGVSDAATRGFMTDETIRHLRETCPGWDLHALHAEFESWVNGDSARLPANWQKAFIGWVKRHHEKNGHALRR,not soluble
10,MERPISEAYFQEAKRHIPGGVSSPVRAFKAVGGTPPFLVRGEGAYVWDADGNRYLDYVMSWGPLILGHAHPKVLARVRETLERGLTFGAPSPLEVALAKKVKRAYPFVDLVRFVNSGTEATMSALRLARGYTGRPYIVKFRGNYHGHADGLLVEAGSGALTLGVPSSAGVPEEYAKLTLVLEYNDPEGLREVLKRRGEEIAAIIFEPVVGNAGVLVPTEDFLKALHEAKAYGVLLIADEVMTGFRLAFGGATELLGLKPDLVTLGKILGGGLPAAAYAGRREIMEKVAPLGPVYQAGTLSGNPLAMAAGLATLELLEENPGYYAYLEDLGARLEAGLKEVLKEKGLPHTVNRVGSMITVFFTEGPVVTFQDARRTDTELFKRFFHGLLDRGIYWPPSNFEAAFLSVAHREEDVEKTLEALRKAL,soluble
11,MSLNTQDFLAGYTKRFVDNKEEDMSLDEYLELCKTDPTAYANPAERLLMAIGEPELIDTRHDPVLSRIFSNKIIHHYEVFKDFYGMEEPIEQIVGFLKHAAQGLEETKQVLYLLGPVGGGKSSIAEKLKDLMERIPFYAIKGSPVFESPLSLFNPLEDGELLRERFGIPTRYLRYLMSPWAVKRLQEYNGDISKFRVIKVKPSRLKQIAIAKTEPGDENNQDISSLVGKVDIRKLEEFSQDDPDAYSYSGGLCRANRGLLEFVEMFKAPIKVLHPLLTATQEGNYNATEGLSAIPFEGIILAHSNESEWQSFRNNEGHHHHHH,not soluble
12,MADKSTEVEKAIDPIIDLGNLLFIDREPIQGDASEGLEERARKNTQLLFNNIWQLEQKRVEEAIIVTLPPATYRLPREKRLPEKKEPTKWEKYAAEKGIEKRKKDKKVFDEATKEWKPTYGYRRGNDDTKDWLIEIPDNAEDPNKDFFAERREKKKERVAKNDMQRMKNLARQMKTTVKSGPSTEKMIGVGVDAKEKSKQQVRFAVDRAKLATASAGKFQEGLKGEKANVKTGKKRKFEANEAPVSGEKERALQILQRMKSKKAKIVEEKAAAVAGPLREKKEKSERKGAKDQTRQKSQIHRQQWFKNKVDGKKKGTGGAGKKGANKAKARKG,not soluble
13,MTAKTEDNLKEYTRSQVEQHCTHDDLWLLFRDKVYNMTPYFNQHPGGLAILRYAGKDVTTVLPFVVSHGIAWKIVEQKLQEHLIGKLKE,not soluble
14,RAKGTLRIWAEPFTKLRVPKIFNLRMDPYEVADVTSNTYYDWMLDRAYMLVPAQTYVGRFLETFKEFPPRQKAASFSLDQVMEKLQENPNK,not soluble
15,MGSDKIHHHHHHMINKYKVSENRLSIMEIERFAVHDGPGIRTVVFLQGCPLHCSWCSNPESQKRKPHLLHIKNKCIGCGRCEAICPRGNISIQDHFPVFNRQACVACKACERICPQNAIKFVGESITSSEIMEILLRDRDYYLNSGGGVTFSGGEAFTQFEGLMDLLIQCKNEKLHTSVETCGQVNLDKIKQALPLIDLFLFDIKHTDKDLLQKETGANLDTILTNLRYISSKSANKVTIRVPVIPGFNFNENTLREIFMLAKENRIKCVHLLPYHTLGKDKYEQLGLTYPYSCEQMLAKEELFPFKEMGEKMGLEIRIGG,not soluble
16,SLSWLTTHFVVTNRRVMFRHGVLTRSGIDIPLARINSVEFRDRIFERIFRTGTLIIESASQDPLEFYNIPRLREVHALLYHEVFDTLGSDESPS,soluble
17,MSLGTPVTLRMDTTDADGRITLGDLFDGVSGPAANVVVAARMSATAVLEAGQVQMSARRAGYVWTNANGVRRIIVREGVDNGGVSSSAAPGAQLAGARLAGAPRANVEVLPYARSLSAGEIVQPQDLIWVKMAGAPADAPRDADAVIGLAAKRPLREGAPVGMKDVAAAQVIKSGDLITITYEDGGISLSLQGKAMAAAAAGDVFAVQNTLSKKIIQAVAVGPGAAAVGPQEGHHHHHH,not soluble
18,SSVNYAAGLSPYADKGICGLPETFDSPEELKTKVETLAQWIRESQYMVVHSGAGISTSTGIPDFRGPNGVWTMEERGETPHFNTTFEDARPSLTHMALLQMQRTGHLKYLISQNVDGLHVRSGFPRDRLSELHGNMFVEECEKCGKQYVRDTVVGVMGLKPTGRYCDVMRSRGLRSCRGKLISSILDWEDSLPDRDLNRADEASRRADLALTLGTSLQIKPSGDLPLLTKRTGGKLVIVNLQPTKHDKHAHLRIYGYVDDVMGQLMKLLGLDVPEWAGPTLCEDSGGDLDILPYGAWKKEVKIELKIEESNHTVSKKRKRKEQHAEEGYKNGVKVEEEMKEEGKESDSHVHTHT,soluble
19,MISLPSGTRIWLVAGVTDMRKSFNGLGEQVQHVLDETPFSGHLFIFRGRRGDTVKILWADADGLCLFTKRLEEGQFIWPAVRDGKVSITRSQLAMLLDKLDWRQPKTFRLNSLTML,not soluble
20,MSLNKKLYIGMVGILSLMMVGCNKSLAKVNDVEITKEQYKKTKAVLSATNNYINGQSLDELEKTLDKKGRNKLENVIISFMVDNELLYQEAKDKGLTPSKSEVDSKYQELEDKMNLNTSYKEKMDKAGVDKDYLKQEISRDLAIDKNKKAFEDRINISDNDMEAYYTSHKKDFNVEEVSASQILISTLDKNKKEVSKDKKEALKKKADNILTKIKNGESFESLAKKYSDDKATGKNGGQLGYFTKDDKNAEFTKEVFKLKKNEVSNVFETSYGYHIVKVTDKRERQKSFNECQSLIRESILNEKYIEHIKKLNEDAKIDREGHHHHHH,soluble
21,MTFQVILCYETVRQVAGLESELKANGFGQAQVLPNGTVPNRGSIVDLTNAISKLGVLRATAAGLAGTISRGGAVAIVPAHFGAGGKATEIMKKYNPIVDRPAAKPSAWDDAAPFSSLLRLPVITKSQPFKGHSGTPLIIEQEGAYRSNSGEPLVIKQTGGYRSMSGTPLLLDGGPYKSFSGTPLLIEQKDAYSSFSGTPLLVDSNTLFLTRA,not soluble
22,MLEWRGDKYVNGYYPVSSSAPDLLLECISNESKKYLPGELIAVECKWRSTVNFFIPKSDAEKYEKYFRTNKTRYRVKHLFYLFGFGWSDNAPESVYIIPSTALYEYDENTFEITFPNGELIKDKKIRMEDYKMKFKNLIYTVPENRKHLSYQTKSFDTKKKDEPMQR,not soluble
23,GLTYDLNGNISTYRNEILELPETVAANGKFGGNGVKSVVGHTYGAQVGYIADGIFKSQDEVDNHATQEGAAVGRIRYRDIDHNGVIDERDQNWIYDPTPSFSYGLNIYLEYKNFDLTMFWQGVQGVDIISDVKKKSDFWSASNVGFLNKGTRLLNAWSPTNPNSDIPALTRSDTNNEQRVSTYFVENGSFLKLRNIQLGYTVPAVISKKMRMDRLRFYCSAQNLLTIKSKNFTGEDPENPNFSYPIPVNITFGLNIGF,not soluble
